Measurements: publication PMC6741143, “A putative merR family transcription factor Slr0701 regulates mercury inducible expression of MerA in the cyanobacterium Synechocystis sp. PCC6803” (MicrobiologyOpen, 2019)

T1: Slr0701 (6x-His, MerR family regulator) (Synechocystis sp. PCC6803, UniProt Q55963 1-137)
T1 sequence: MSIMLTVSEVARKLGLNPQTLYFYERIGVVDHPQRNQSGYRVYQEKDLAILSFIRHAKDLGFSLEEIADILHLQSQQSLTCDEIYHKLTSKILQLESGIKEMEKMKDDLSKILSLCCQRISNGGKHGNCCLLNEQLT

B1: 6x-His-Slr0701 protein (putative MerR family transcriptional regulator Slr0701) (natural protein, Synechocystis sp. PCC6803, UniProt Q55963 1-137, looked up)
chain: T1 sequence
notes: Slr0701, putative MerR family transcriptional regulator of Synechocystis sp; PCC6803; the slr0701 ORF amplified with primers from the start codon (GTG) to the stop codon and cloned into pET-28a(+) at NheI and EcoRI; not shown: His6, C-terminal, kept
B2: Pslr0701 50-bp oligonucleotide duplex (dsDNA)
DNA 1: TACTACAATATATTCCCTATACTTAGGTATAAGGTTGTAGGTTGATATAG
DNA 2: CTATATCAACCTACAACCTTATACCTAAGTATAGGGAATATATTGTAGTA

Experiments:
[1] = biological target: the molecule itself; assay: SDS-PAGE without 2-mercaptoethanol; purified 6x-His-Slr0701 on 15% SDS-PAGE under semi-denaturing condition (without 2-mercaptoethanol), compared with a sample with 2-mercaptoethanol; monomer to dimer
[2] = biological target: T1, Slr0701 (6x-His, MerR family regulator); assay: SPR; 62 uM HgCl2; EMSA: 20 ul, 80 ng DNA, 0.5 or 1 ug protein, binding buffer not specified, 30 min at 25 C, 6% native PAGE in 0.5x TBE at 4 C, SYBR Green; SPR: Biacore T200, SA; settings: protein: recombinant; tags: 6xHis (text says C-terminal; pET-28a NheI/EcoRI clone, also written 6x-His-Slr0701); chain copies: 2; label: 5' biotin on strand 1; blunt

Binder | stoichiometry N [1] | binding signal [2]
B1 | 2 | –
B2 | – | ~1000 fold higher affinity with HgCl2 than without
